Data as given in patent US20040023341A1 (ZymoGenetics, published 2004).
Each block holds one molecule with its values, some of them ahead of it.

Experiments:
[1] = target: IL-TIF protein (SEQ ID NO:3) (human) (UniProt Q9GZX6); test: cell-based or functional assay
[2] = target: T1, CRF2-4/zcytor11 heterodimeric receptor on BaF3/CRF2-4/zcytor11 cells (human, UniProt Q08334 20-325); test: cell-based or functional assay
T1 sequence 1: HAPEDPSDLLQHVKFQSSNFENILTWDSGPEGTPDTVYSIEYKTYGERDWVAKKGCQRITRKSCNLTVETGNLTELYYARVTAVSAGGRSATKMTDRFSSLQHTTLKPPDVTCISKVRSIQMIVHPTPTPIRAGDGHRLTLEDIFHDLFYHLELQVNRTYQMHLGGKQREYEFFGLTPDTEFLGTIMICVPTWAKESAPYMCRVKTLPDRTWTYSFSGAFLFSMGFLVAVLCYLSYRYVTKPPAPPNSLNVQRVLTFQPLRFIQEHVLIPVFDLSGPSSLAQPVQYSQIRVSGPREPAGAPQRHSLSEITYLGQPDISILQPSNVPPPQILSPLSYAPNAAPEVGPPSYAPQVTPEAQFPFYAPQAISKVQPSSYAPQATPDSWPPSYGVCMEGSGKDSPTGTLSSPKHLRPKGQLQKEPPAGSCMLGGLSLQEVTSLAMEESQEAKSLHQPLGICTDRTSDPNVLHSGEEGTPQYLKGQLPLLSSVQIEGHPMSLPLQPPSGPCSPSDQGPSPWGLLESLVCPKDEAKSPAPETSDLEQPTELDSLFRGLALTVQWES
T1 sequence 2: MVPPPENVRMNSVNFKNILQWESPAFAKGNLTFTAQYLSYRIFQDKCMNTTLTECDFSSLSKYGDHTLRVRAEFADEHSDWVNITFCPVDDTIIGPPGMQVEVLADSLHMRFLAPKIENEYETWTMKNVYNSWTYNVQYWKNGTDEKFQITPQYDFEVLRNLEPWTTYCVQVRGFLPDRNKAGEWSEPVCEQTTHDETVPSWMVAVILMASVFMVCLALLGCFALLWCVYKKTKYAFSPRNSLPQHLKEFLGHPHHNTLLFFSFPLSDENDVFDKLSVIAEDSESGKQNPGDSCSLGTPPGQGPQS

concentration at which inhibition of IL-TIF-induced proliferation was barely detectable [1]: 63 ng/mL | concentration giving complete inhibition of IL-TIF-induced proliferation [1]: 8 µg/mL | concentration giving partial inhibition of IL-TIF-induced proliferation [1]: 0.125 to 4 µg/mL
Molecule: CRF2-4/zcytor11-Fc4 soluble heterodimer receptor (Fc fusion)

proliferation of BaF3/CRF2-4/zcytor11 cells (Alamar Blue), fold induction at 0.06 ng/ml IL-TIF-CEE [2]: 2 fold | proliferation of BaF3/CRF2-4/zcytor11 cells (Alamar Blue), fold over background at 50 ng/ml IL-TIF-CEE [2]: ~15 fold
B1: IL-TIF-CEE polypeptide purified from BHK 570 cells (ligand)
chain: APISSHCRLDKSNFQQPYITNRTFMLAKEASLADNNTDVRLIGEKLFHGVSMSERCYLMKQVLNFTLEEVLFPQSDRFQPYMQEVVPFLARLSNRLSTCHIEGDDLHIQRNVQKLKDTVKKLGESGEIKAIGELDLLFMSLRNACIEYMPME

proliferation of BaF3/CRF2-4/zcytor11 cells (Alamar Blue) at 100 pg/ml IL-TIF [2]: 13 fold
B2: IL-TIF protein (SEQ ID NO:3) (ligand)
chain: APISSHCRLDKSNFQQPYITNRTFMLAKEASLADNNTDVRLIGEKLFHGVSMSERCYLMKQVLNFTLEEVLFPQSDRFQPYMQEVVPFLARLSNRLSTCHIEGDDLHIQRNVQKLKDTVKKLGESGEIKAIGELDLLFMSLRNACI
